Assay results taken from publication PMC12376620, “A Novel OsMPK6‐OsMADS47‐PPKL1/3 Module Controls Grain Shape and Yield in Rice”.

These binders were tested against MBP-OsMADS47 (Oryza sativa (cv. Nipponbare, NIP?), UniProt Q5K4R0 1-250) (assay: EMSA; EMSA buffer not stated (performed as described previously, ref 61); unlabeled competitors at 10x, 100x, 1000x). Conditions: protein: recombinant; tags: MBP (N-terminal, pMAL); chain copies: 2; label: biotin 3'-end; blunt.
MBP-OsMADS47, sequence (Q5K4R0 whole entry): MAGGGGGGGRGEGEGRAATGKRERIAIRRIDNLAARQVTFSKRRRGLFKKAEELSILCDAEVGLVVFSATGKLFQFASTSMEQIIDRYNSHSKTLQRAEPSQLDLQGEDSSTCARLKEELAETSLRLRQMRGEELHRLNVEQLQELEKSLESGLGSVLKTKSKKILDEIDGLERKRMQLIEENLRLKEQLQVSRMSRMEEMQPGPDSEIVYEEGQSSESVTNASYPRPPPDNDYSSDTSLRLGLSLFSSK

Binder	binding result
GS3-P1 (dsDNA) DNA 1: GCTGCACAACCCGCGATGCCGTCGGCCGGATTTGGGAGGTGGAGCGTCGCCGCCCTCC DNA 2: GGAGGGCGGCGACGCTCCACCTCCCAAATCCGGCCGACGGCATCGCGGGTTGTGCAGC	binds
GS3-P2 (dsDNA) DNA 1: CTCTCCCTTCCATCATTACTTGCCCAAAAACGGCAATCCCCTCCCCTCCATCTCCATGTG DNA 2: CACATGGAGATGGAGGGGAGGGGATTGCCGTTTTTGGGCAAGTAATGATGGAAGGGAGAG	binds
GS3-P3 (dsDNA) DNA 1: GCCACCCTCCCTACGACGTAGCCAGATATGGGTGGAGAGGTAAGCGCCGCCGCCGCTGC DNA 2: GCAGCGGCGGCGGCGCTTACCTCTCCACCCATATCTGGCTACGTCGTAGGGAGGGTGGC	binds
GS3-P4 (dsDNA) DNA 1: CCACCGTCCCCCCTTCCCCCTCCAACCAGATCTGGGAGGAAGGGAGGGAGGGAGGGGAG DNA 2: CTCCCCTCCCTCCCTCCCTTCCTCCCAGATCTGGTTGGAGGGGGAAGGGGGGACGGTGG	binds
GS3-P5 (dsDNA) DNA 1: CTTTTCTAAACGATATTCTTCATGAACCAAAGGAGGGAAGCTCATTCCGAAAATTTTTCC DNA 2: GGAAAAATTTTCGGAATGAGCTTCCCTCCTTTGGTTCATGAAGAATATCGTTTAGAAAAG	binds
GW8-P1 (dsDNA) DNA 1: CTTATAGTCCAACAATTTGAGAGCAATTAATGGTCAAAAATTAAATGAAAAATAGAAATTC DNA 2: GAATTTCTATTTTTCATTTAATTTTTGACCATTAATTGCTCTCAAATTGTTGGACTATAAG	binds
GW8-P2 (dsDNA) DNA 1: GTAACTGACTACCCCCAGTTCCTGCCCTCTTGGGCCTTGGTATTGTTGCTCCAAG DNA 2: CTTGGAGCAACAATACCAAGGCCCAAGAGGGCAGGAACTGGGGGTAGTCAGTTAC	binds
GW8-P3 (dsDNA) DNA 1: CTACTTTCCTTATTCCACTAGAAATCATATATACCTTTCTCACTCTACATAATC DNA 2: GATTATGTAGAGTGAGAAAGGTATATATGATTTCTAGTGGAATAAGGAAAGTAG	binds
